According to publication PMC2897027 (Journal of molecular biology, 2010):

Tests used:
[1] = biological target: CTD MSK1 construct comprising residues 398-738 (human) (UniProt O75582); test: SEC
[2] = biological target: CTD MSK1 construct comprising residues 414-750 (human) (UniProt O75582); test: SEC
[3] = biological target: "full length" C-terminal kinase domain of MSK1 (residues 414-802) (human, UniProt O75582 414-802); test: SPR
Chain of "full length" C-terminal kinase domain of MSK1 (residues 414-802) (O75582 414-802): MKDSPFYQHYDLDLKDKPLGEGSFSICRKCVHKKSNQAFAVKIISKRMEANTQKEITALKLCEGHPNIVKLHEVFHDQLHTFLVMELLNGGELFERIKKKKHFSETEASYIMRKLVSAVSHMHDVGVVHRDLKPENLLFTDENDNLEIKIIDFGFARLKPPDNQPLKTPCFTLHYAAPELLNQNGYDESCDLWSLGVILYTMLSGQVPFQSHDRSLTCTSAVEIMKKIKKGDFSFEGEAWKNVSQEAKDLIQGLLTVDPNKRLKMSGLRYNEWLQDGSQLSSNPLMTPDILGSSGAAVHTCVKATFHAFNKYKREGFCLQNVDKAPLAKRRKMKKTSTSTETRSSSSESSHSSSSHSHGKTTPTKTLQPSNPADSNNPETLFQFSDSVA

CTD MSK1 construct comprising residues 398-738 (from UniProt O75582 398-738) (domain or fragment)
stoichiometry N [1]: 2

CTD MSK1 construct comprising residues 414-750 (from UniProt O75582 414-750) (domain or fragment)
stoichiometry N [2]: 2

B1: Full length human ERK1 (enzyme, UniProt P27361 1-379, looked up)
chain: MAAAAAQGGGGGEPRRTEGVGPGVPGEVEMVKGQPFDVGPRYTQLQYIGEGAYGMVSSAYDHVRKTRVAIKKISPFEHQTYCQRTLREIQILLRFRHENVIGIRDILRASTLEAMRDVYIVQDLMETDLYKLLKSQQLSNDHICYFLYQILRGLKYIHSANVLHRDLKPSNLLINTTCDLKICDFGLARIADPEHDHTGFLTEYVATRWYRAPEIMLNSKGYTKSIDIWSVGCILAEMLSNRPIFPGKHYLDQLNHILGILGSPSQEDLNCIINMKARNYLQSLPSKTKVAWAKLFPKSDSKALDLLDRMLTFNPNKRITVEEALAHPYLEQYYDPTDEPVAEEPFTFAMELDDLPKERLKELIFQETARFQPGVLEAP
Kd [3]: 74 ± 6 nM
